Results on one molecule are retold here after paper PMC7989959.

The target in the data set is alpha-synuclein (UniProt P37840 1-140). Nature of the data set: electrochemical current sensor.

Take GCCTGTGTTGGGGCGGGTGCG (ssDNA, 5'-SH (thiol)) [Abeta aptamer (Tsukakoshi et al)]: the binding result was “no binding”.
